# Measurements: patent US20240200091A1, “USE OF PROTOPORPHYRINOGEN OXIDASE” (BEIJING DABEINONG BIOTECHNOLOGY CO., LTD., priority 2021, published 2024)
# What was measured:
# Format in all cases: in vivo
# transgenic maize plants [1] = assay: saflufenacil tolerance of transgenic maize plants (spray, grade of pesticide damage); conditions: for The grade of pesticide damage/plant: number of plants of grade 0 / The grade of pesticide damage/plant: number of plants of grade 1 / The grade of pesticide damage/plant: number of plants of grade 2 / The grade of pesticide damage/plant: number of plants of grade 3: 7 DAT, 16 maize plants per genotype
# transgenic maize plants [2] = assay: flumioxazin tolerance of transgenic maize plants (spray, grade of pesticide damage); conditions: for The grade of pesticide damage/plant: number of plants of grade 0 / The grade of pesticide damage/plant: number of plants of grade 1 / The grade of pesticide damage/plant: number of plants of grade 2 / The grade of pesticide damage/plant: number of plants of grade 3: 7 DAT, 16 maize plants per genotype; for tolerance to flumioxazin: maize, flumioxazin at different concentrations (120 and 240 g ai/ha)
# transgenic maize plants [3] = assay: oxyfluorfen tolerance of transgenic maize plants (spray, grade of pesticide damage); conditions: for The grade of pesticide damage/plant: number of plants of grade 0 / The grade of pesticide damage/plant: number of plants of grade 1 / The grade of pesticide damage/plant: number of plants of grade 2 / The grade of pesticide damage/plant: number of plants of grade 3: 7 DAT, 16 maize plants per genotype
# [4] = maize, saflufenacil at four-fold field concentration (100 g ai/ha)
# [5] = maize, saflufenacil at two-fold field concentration (50 g ai/ha)
# [6] = saflufenacil 50 g ai/ha (2x field concentration)
# [7] = saflufenacil 100 g ai/ha (4x field concentration)
# [8] = flumioxazin 120 g ai/ha (2x field concentration)
# [9] = flumioxazin 240 g ai/ha (4x field concentration)
# [10] = maize, oxyfluorfen at four-fold field concentration (720 g ai/ha)
# [11] = maize, oxyfluorfen at two-fold field concentration (360 g ai/ha)
# [12] = oxyfluorfen 360 g ai/ha (2x field concentration)
# [13] = oxyfluorfen 720 g ai/ha (4x field concentration)
Molecule,tolerance to saflufenacil (transgenic maize plants [1]; [4]),The grade of pesticide damage/plant: number of plants of grade 0 (transgenic maize plants [1]; [6]),The grade of pesticide damage/plant: number of plants of grade 1 (transgenic maize plants [1]; [6]),The grade of pesticide damage/plant: number of plants of grade 2 (transgenic maize plants [1]; [6]),The grade of pesticide damage/plant: number of plants of grade 3 (transgenic maize plants [1]; [6]),The grade of pesticide damage/plant: number of plants of grade 0 (transgenic maize plants [1]; [7]),The grade of pesticide damage/plant: number of plants of grade 1 (transgenic maize plants [1]; [7]),The grade of pesticide damage/plant: number of plants of grade 2 (transgenic maize plants [1]; [7]),The grade of pesticide damage/plant: number of plants of grade 3 (transgenic maize plants [1]; [7]),The grade of pesticide damage/plant: number of plants of grade 0 (transgenic maize plants [2]; [8]),The grade of pesticide damage/plant: number of plants of grade 1 (transgenic maize plants [2]; [8]),The grade of pesticide damage/plant: number of plants of grade 2 (transgenic maize plants [2]; [8]),The grade of pesticide damage/plant: number of plants of grade 3 (transgenic maize plants [2]; [8]),The grade of pesticide damage/plant: number of plants of grade 0 (transgenic maize plants [2]; [9]),The grade of pesticide damage/plant: number of plants of grade 1 (transgenic maize plants [2]; [9]),The grade of pesticide damage/plant: number of plants of grade 2 (transgenic maize plants [2]; [9]),The grade of pesticide damage/plant: number of plants of grade 3 (transgenic maize plants [2]; [9]),tolerance to flumioxazin (transgenic maize plants [2]),tolerance to oxyfluorfen (transgenic maize plants [3]; [10]),The grade of pesticide damage/plant: number of plants of grade 0 (transgenic maize plants [3]; [12]),also measured
"PPO12B: nucleotide sequence encoding protoporphyrinogen oxidase PPO12, maize common codon usage bias (nucleic acid, The nucleotide sequence of PPO12B) DNA: ATGAAGAAGGCGCTGTTTTTATATTCAAGTCGTGAGGGCCAAACAAAAAAAATATTGAACTACATTGAAGGTGAATTGTCCAATTTTGAGTGCGAGCTCGTCGACCTCCACACGCTGGACGCCATTGATTTCTCGGTCTATGACAGGGTTTTGATTGGAGCAAGCATACGGTACGGCCACCTAAACAAGAAACTTTATCAATTCATTGAGAATAACCGCCAGCAGCTGGAAAATCATACCAAGGTGGCCTTCTTCTGTGTAAATCTTACTGCAAGGAAGGAAGATCAAGGCAAGGACACCCCTGAAGGGAGCGTCTACATCCAGAAGTTCCTGAAAAAATCTCCCTGGCAGCCAAAACTTATCGGGGTGTTCGCTGGCGCGCTCTACTACCCGAGATATGGTTTTTTTGACAAGATGATGATCAAGCTCATCATGACGCTGACAGATGGAGAGACTGATACTACAAAGGAGGTGGAGTACACCAACTGGAAGAAAGTTTCCCTCTTCGCCAAGAAGTTTGCTGAGCTTTGA",high-resistant tolerance,16,0,0,0,16,0,0,0,16,0,0,0,16,0,0,0,high-resistant tolerance,high-resistant tolerance,16,tolerance to saflufenacil (transgenic maize plants [1]; [5]): high-resistant tolerance; tolerance to oxyfluorfen (transgenic maize plants [3]; [11]): high-resistant tolerance; The grade of pesticide damage/plant: number of plants of grade 1 (transgenic maize plants [3]; [12]): 0; The grade of pesticide damage/plant: number of plants of grade 2 (transgenic maize plants [3]; [12]): 0; The grade of pesticide damage/plant: number of plants of grade 3 (transgenic maize plants [3]; [12]): 0; The grade of pesticide damage/plant: number of plants of grade 0 (transgenic maize plants [3]; [13]): 16; The grade of pesticide damage/plant: number of plants of grade 1 (transgenic maize plants [3]; [13]): 0; The grade of pesticide damage/plant: number of plants of grade 2 (transgenic maize plants [3]; [13]): 0; The grade of pesticide damage/plant: number of plants of grade 3 (transgenic maize plants [3]; [13]): 0
"PPO-APB: nucleotide sequence encoding Arsenophonus protoporphyrinogen oxidase PPO-AP (SEQ ID NO:65), maize common codon usage bias (nucleic acid, The nucleotide sequence of PPO-APB) DNA: ATGTCCTACCTCTTGCTGTATTCGGGGAAAAATGGTCAAACCAAGAAGATCATCCTCAAAATAACTGAATATCTTCGTAAAGAAGGAAAGCAGTGCGACGTCAGAGATCTTAACATGGACAAGAATTTTAATTTAAGTGTGTACCAGAAGGTTCTTGTCGGAGCTTCAATTCGCTACGGCCACTTCAACCCCGCCGTGCTGAACTTCGCGCAGAATCATCAAAAAGAGCTGAACACAATTCAATCTGCCTTCTTTGGCGTCAACCTGATGGCGAGGAAGCAAGGGAAGGATACACCAGAAACCAATGTTTATGTTCGGAAGTTTTTGGCTAAAATTCCATGGCAGCCGACGATCACCAACGTATTTAGCGGTGCACTCAGATATCCTCAGTACAAGTGGCTGGATAGGATAATGATCCAGTTCATCATGAAGATTACTGGCGGCGAGACAAATAAGAACAAGGAGGTGGAGTACACGGACTGGGAGAAAGTGGAATACTTCGCCCGCGAGTTCAATGCACTAAAATGA",basically no tolerance,0,0,7,9,0,0,1,15,0,0,3,13,0,0,0,16,basically no tolerance,no tolerance,0,share of the plants that exhibited no tolerance (transgenic maize plants [1]; [5]): about 56; share of the plants that exhibited no tolerance (transgenic maize plants [3]; [11]): about 50%; The grade of pesticide damage/plant: number of plants of grade 1 (transgenic maize plants [3]; [12]): 0; The grade of pesticide damage/plant: number of plants of grade 2 (transgenic maize plants [3]; [12]): 8; The grade of pesticide damage/plant: number of plants of grade 3 (transgenic maize plants [3]; [12]): 8; The grade of pesticide damage/plant: number of plants of grade 0 (transgenic maize plants [3]; [13]): 0; The grade of pesticide damage/plant: number of plants of grade 1 (transgenic maize plants [3]; [13]): 0; The grade of pesticide damage/plant: number of plants of grade 2 (transgenic maize plants [3]; [13]): 0; The grade of pesticide damage/plant: number of plants of grade 3 (transgenic maize plants [3]; [13]): 16
"PPO6B: nucleotide sequence encoding protoporphyrinogen oxidase PPO6, maize common codon usage bias (nucleic acid, The nucleotide sequence of PPO6B) DNA: ATGTCAAGTCCCAACGGGAAGTACCTTATGCTGTATAGCACGACTGATGGACACACCAAGACAATAATGGACACCATGGCGAAGCACATTATGGAAGAGGCCAAAGTTCAGTGCGACGTCGTAGACATGAGGGACGGGGACAAGTATGAACTTGCGGCTTACGAGAAGGTCATGCTCGGCGCCTCCATAAGGTACGGCTTCTTCAGCCGCACCTTGCATACATATACTACCCATCATGTTGATGAGCTTAACTCCATGCCATCGGCATTCTTTGGTGTTAATTTAACGGCGCGGAAAACTAGCAAGAACACAGCCATGACCAATGCTTATACACGGAAATTCCTGGATCAATCTATGTGGGTGCCACAGCTGAGTGGGGTCTTCGCCGGTGCACTCTGGTACCCCCGCTACAACTTTTTTGATCGAGTGATGATCCAGTTCATCATGAAGGTGACGGGCGGCGAAACAAATACTACAAAAGAGATCGTCTACACGGACTGGGATGCAGTGCACAAGTTTGCTACTGACTTCGTCCAACTCCCTGCCACCGCCATTCCAAGATCTAAACCTGCTACGTCGGTGCCGCCGGCGTCAGTAGCAAACTATGATAATGGTGCTCGTGTTGCGCTGGTGGTGGTTGGAATTTCTGCAGCCATCATCTTCGGCCGCAGGCTAATTTTGGCCAAGAGATTTTGA",high-resistant tolerance,16,0,0,0,16,0,0,0,16,0,0,0,16,0,0,0,high-resistant tolerance,high-resistant tolerance,16,tolerance to saflufenacil (transgenic maize plants [1]; [5]): high-resistant tolerance; tolerance to oxyfluorfen (transgenic maize plants [3]; [11]): high-resistant tolerance; The grade of pesticide damage/plant: number of plants of grade 1 (transgenic maize plants [3]; [12]): 0; The grade of pesticide damage/plant: number of plants of grade 2 (transgenic maize plants [3]; [12]): 0; The grade of pesticide damage/plant: number of plants of grade 3 (transgenic maize plants [3]; [12]): 0; The grade of pesticide damage/plant: number of plants of grade 0 (transgenic maize plants [3]; [13]): 16; The grade of pesticide damage/plant: number of plants of grade 1 (transgenic maize plants [3]; [13]): 0; The grade of pesticide damage/plant: number of plants of grade 2 (transgenic maize plants [3]; [13]): 0; The grade of pesticide damage/plant: number of plants of grade 3 (transgenic maize plants [3]; [13]): 0
